Experimental data as given in patent US20190031760A1 (Hoffmann-La Roche, published 2019).
Substitutions are numbered along the chain they refer to. Numbers in names are those of the source. Values belong to the binder of their own block, whether it stands above or below them.

What was measured:
[1] = molecular target: T1, avi-Fc-cynomolgus ASGPR H1 stalk CRD (cynomolgus, biotinylated at the N-terminal Avi tag); experiment: SPR (ProteOn XPR36), antigen captured by neutravidin, Fab as analyte;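 note: antigen surface loaded to 200, 400 or 800 RU in PBST pH 7.4, sensorgrams referenced against a buffer-only in-line channel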
T1 construct: Homodimeric Fc fusion of the cynomolgus ASGPR H1 ECD; also called cyASGPR H1 stalk CRD

[2] = molecular target: T2, avi-Fc-human CLEC10A stalk CRD (human, biotinylated at the N-terminal Avi tag); experiment: as above
T2 construct: Homodimeric Fc fusion of the human CLEC10A ECD, closest homologue of ASGPR H1, used as specificity control; also called huCLEC10A stalk CRD
T2 sequence (chain, as listed by the source limits assumed): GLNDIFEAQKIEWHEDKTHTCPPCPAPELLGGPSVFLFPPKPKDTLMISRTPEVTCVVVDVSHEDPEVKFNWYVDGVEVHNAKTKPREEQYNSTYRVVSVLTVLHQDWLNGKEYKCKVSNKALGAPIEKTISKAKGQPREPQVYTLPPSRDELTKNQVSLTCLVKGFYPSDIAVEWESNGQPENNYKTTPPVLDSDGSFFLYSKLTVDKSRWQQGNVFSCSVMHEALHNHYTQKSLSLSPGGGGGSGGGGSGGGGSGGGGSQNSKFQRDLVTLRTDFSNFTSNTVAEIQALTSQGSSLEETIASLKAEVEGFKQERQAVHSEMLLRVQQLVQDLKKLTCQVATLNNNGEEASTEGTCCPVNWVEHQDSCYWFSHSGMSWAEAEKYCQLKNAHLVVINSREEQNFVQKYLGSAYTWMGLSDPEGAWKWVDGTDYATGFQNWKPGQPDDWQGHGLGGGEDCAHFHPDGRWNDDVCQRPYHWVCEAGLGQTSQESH

[3] = molecular target: T3, avi-Fc-human ASGPR H1 stalk CRD (human, biotinylated at the N-terminal Avi tag); experiment: as above
T3 construct: Homodimeric (bivalent) Fc fusion of the human ASGPR H1 ECD (stalk and CRD); also called huASGPR H1 stalk CRD; Fc-stalk-CRD

[4] = molecular target: T4, full-length human ASGPR H1 with a C-terminal SNAP tag, on transfected HEK293 cells (human, UniProt P07306 1-291, SNAP tag labeled with SNAP-Lumi4Tb (terbium)); experiment: FRET on HEK293 cells expressing terbium-labeled ASGPR H1-SNAP; IgG1 at 50-0.39 nM, anti-humanFc-d2 as acceptor
T4 construct: whole, on cells; Transiently expressed in HEK293 cells for the FRET assay; also called transmembrane ASGPR H1-SNAP tag fusion protein labeled with terbium
T4 sequence (looked up): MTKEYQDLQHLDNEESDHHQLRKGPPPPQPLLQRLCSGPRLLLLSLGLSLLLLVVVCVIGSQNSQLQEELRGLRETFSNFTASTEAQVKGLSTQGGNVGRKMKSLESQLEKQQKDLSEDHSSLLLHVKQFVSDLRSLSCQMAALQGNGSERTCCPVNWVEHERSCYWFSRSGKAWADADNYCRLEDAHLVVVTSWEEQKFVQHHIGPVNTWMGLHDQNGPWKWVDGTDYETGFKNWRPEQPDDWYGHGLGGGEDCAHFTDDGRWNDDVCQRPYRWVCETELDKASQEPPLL

[5] = molecular target: T5, avi-Fc-human ASGPR H1 CRD (human, UniProt P0DOX5 223-449 = IgG part, biotinylated at the N-terminal Avi tag); experiment: SPR (ProteOn XPR36), antigen captured by neutravidin, Fab as analyte;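 for result: antigen surface loaded to 200, 400 or 800 RU in PBST pH 7.4, sensorgrams referenced against a buffer-only in-line channel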
T5 construct: also called Fc-CRD; hu/cyASGPR H1 CRD

[6] = molecular target: T6, human ASGPR H1 on ASGPR-positive hepatic cells (HepG2, primary human hepatocytes, Huh-7) (human, UniProt P07306 1-291); experiment: FACS on HepG2 cells, purified Fab at 1.1, 3.3 and 10 µg/ml, 30 min at 4°C, FITC anti-human F(ab')2 secondary
T6 construct: whole, on cells; Endogenous receptor on cells; the antibodies were selected on H1; also called surface-exposed ASGPR
T6 sequence (looked up): T4 sequence (looked up)

[7] = molecular target: T6, human ASGPR H1 on ASGPR-positive …; experiment: FACS on HepG2 cells, FITC-labeled IgG 30 µg/ml bound at 4°C, washed, then 37°C for up to 120 min; PE anti-Fc detection of surface antibody
[8] = molecular target: T5, avi-Fc-human ASGPR H1 CRD; experiment: SPR (ProteOn XPR36), antigen captured by neutravidin, Fab as analyte; remark: listed apart in the source;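 for result: antigen surface loaded to 200, 400 or 800 RU in PBST pH 7.4, sensorgrams referenced against a buffer-only in-line channel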
[9] = molecular target: T5, avi-Fc-human ASGPR H1 CRD; experiment: SPR (ProteOn XPR36), antigen captured by neutravidin, antibody construct as analyte
[10] = molecular target: T6, human ASGPR H1 on ASGPR-positive …; experiment: FACS on HepG2 cells, human IgG1 in a dilution row up to 20 µg/ml, 30 min at 4°C, FITC anti-human IgG Fc secondary
[11] = molecular target: T7, avi-Fc-human ASGPR H1 stalk (human, biotinylated at the N-terminal Avi tag); experiment: SPR (ProteOn XPR36), antigen captured by neutravidin, Fab as analyte;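 note: antigen surface loaded to 200, 400 or 800 RU in PBST pH 7.4, sensorgrams referenced against a buffer-only in-line channel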
T7 construct: Homodimeric Fc fusion (wild type Fc); also called huASGPR H1 stalk; Fc-stalk
T7 sequence (chain, as listed by the source limits assumed): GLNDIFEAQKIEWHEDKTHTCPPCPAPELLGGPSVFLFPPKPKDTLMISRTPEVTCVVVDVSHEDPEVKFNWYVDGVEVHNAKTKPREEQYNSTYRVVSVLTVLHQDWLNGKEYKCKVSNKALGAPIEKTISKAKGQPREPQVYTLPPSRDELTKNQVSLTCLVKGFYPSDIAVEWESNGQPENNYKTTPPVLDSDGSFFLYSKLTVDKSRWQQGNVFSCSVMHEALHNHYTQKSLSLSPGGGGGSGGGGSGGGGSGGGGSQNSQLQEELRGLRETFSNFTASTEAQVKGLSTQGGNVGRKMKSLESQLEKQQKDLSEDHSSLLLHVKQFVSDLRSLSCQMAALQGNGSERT

[12] = molecular target: T8, avi-Fc-cynomolgus ASGPR H1 stalk (cynomolgus, biotinylated at the N-terminal Avi tag); experiment: as above
T8 construct: Homodimeric Fc fusion (wild type Fc); also called cyASGPR H1 stalk
T8 sequence (chain, as listed by the source limits assumed): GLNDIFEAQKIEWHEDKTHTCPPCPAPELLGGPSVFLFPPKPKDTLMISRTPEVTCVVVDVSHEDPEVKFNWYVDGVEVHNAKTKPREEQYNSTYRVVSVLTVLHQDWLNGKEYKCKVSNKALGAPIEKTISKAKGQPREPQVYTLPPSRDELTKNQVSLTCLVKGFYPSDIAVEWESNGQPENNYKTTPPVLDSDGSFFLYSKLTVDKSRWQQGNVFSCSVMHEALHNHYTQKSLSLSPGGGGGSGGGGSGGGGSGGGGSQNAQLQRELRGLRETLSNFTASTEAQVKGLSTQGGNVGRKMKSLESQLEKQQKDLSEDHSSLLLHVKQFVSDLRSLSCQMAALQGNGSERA

binding result [7]: binds
B6: 51A12_E7 human IgG1 antibody (antibody, V domains shown)
VH: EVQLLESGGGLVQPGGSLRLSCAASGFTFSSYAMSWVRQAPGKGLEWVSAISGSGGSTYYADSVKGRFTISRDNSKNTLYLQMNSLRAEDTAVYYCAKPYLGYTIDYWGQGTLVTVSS
VL: SSELTQDPAVSVALGQTVRITCQGDSLRSYYASWYQQKPGQAPVLVIYGKNNRPSGIPDRFSGSSSGNTASLTITGAQAEDEADYYCNSRDYRYNRAVRPFGGGTKLTVL
notes: also called 51A12_E7 IgG1-converted antibody

Kd [5]: 0.325 nM
koff [5]: 2.79e-05 s⁻¹
kon [5]: 86000 M⁻¹ s⁻¹
binding result [6]: binds
B8: 51A12_H6 Fab (Fab, V domains shown)
VH: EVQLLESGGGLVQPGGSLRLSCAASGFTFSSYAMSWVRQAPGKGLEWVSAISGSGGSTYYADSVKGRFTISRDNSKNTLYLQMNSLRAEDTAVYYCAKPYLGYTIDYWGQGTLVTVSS
VL: B6 VL with R93K, Y94W, A97V, P100H
notes: Fab

binding result [10]: binds
B9: 51A12_A6 human IgG1 antibody (antibody, V domains shown)
VH: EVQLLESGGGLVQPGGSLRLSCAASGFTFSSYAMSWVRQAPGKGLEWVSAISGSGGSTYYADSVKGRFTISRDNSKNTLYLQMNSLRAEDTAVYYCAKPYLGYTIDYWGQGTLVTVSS
VL: B6 VL with D91T, R93S, P100N
notes: also called 51A12_A6 IgG1-converted antibody

Kd [5]: 0.221 nM
koff [5]: 8.85e-05 s⁻¹
kon [5]: 400000 M⁻¹ s⁻¹
binding result [6]: binds
B10: 51A12_D1 Fab (Fab, V domains shown)
VH: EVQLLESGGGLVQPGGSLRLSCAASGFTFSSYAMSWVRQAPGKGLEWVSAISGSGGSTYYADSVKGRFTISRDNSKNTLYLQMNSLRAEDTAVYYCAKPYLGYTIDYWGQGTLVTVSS
VL: B6 VL with D91T, R93S
notes: Fab

Kd [5]: 0.51 nM
koff [5]: 8.3e-05 s⁻¹
kon [5]: 163000 M⁻¹ s⁻¹
binding result [6]: binds
B11: 51A12_H3 Fab (Fab, V domains shown)
VH: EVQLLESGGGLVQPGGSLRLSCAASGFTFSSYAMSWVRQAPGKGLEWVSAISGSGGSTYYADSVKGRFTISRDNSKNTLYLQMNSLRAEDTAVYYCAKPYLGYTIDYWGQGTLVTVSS
VL: B6 VL with R93K, Y94F, A97V, P100N
notes: Fab

Kd [9]: 0.21 nM
koff [9]: 7.34e-05 s⁻¹
kon [9]: 350000 M⁻¹ s⁻¹
Kd [4]: 200 nM
B12: 51A12 IgG (antibody, V domains shown)
VH: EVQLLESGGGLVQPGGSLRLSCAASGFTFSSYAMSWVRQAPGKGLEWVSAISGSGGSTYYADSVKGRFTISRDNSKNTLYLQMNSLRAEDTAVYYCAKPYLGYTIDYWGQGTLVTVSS
VL: B6 VL with G63A, Y92I, R93C, Y94C, A97S, P100N
notes: also called 51A12 human IgG1 antibody; clone 51A12 IgG

Kd [5]: 0.235 nM
koff [5]: 4.67e-05 s⁻¹
kon [5]: 199000 M⁻¹ s⁻¹
binding result [6]: binds
B13: 51A12_C7 Fab (Fab, V domains shown)
VH: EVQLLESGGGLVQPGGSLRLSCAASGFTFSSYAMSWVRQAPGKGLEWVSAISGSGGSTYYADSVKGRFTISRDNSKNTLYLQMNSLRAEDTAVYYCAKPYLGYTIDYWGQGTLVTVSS
VL: B6 VL with Y92I, A97V
notes: Fab

Kd [5]: 0.0801 nM
koff [5]: 2.61e-05 s⁻¹
kon [5]: 326000 M⁻¹ s⁻¹
binding result [6]: binds
B14: 51A12_A6 Fab (Fab, V domains shown)
VH: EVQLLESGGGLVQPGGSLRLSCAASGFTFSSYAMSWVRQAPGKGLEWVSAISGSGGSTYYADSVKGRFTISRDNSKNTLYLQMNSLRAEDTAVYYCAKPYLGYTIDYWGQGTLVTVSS
VL: B6 VL with D91T, R93S, P100N
notes: Fab; also called Variant 51A12_A6

binding result [7]: binds
B15: 51A12_C1 human IgG1 antibody (antibody, V domains shown)
VH: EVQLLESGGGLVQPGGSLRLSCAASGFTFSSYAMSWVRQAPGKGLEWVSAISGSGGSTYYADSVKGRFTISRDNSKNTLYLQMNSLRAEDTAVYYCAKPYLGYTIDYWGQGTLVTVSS
VL: B6 VL with D91S, R93A, Y94F, A97V, P100N
notes: also called 51A12_C1 IgG1-converted antibody

Kd [5]: 0.241 nM
koff [5]: 4.19e-05 s⁻¹
kon [5]: 174000 M⁻¹ s⁻¹
binding result [6]: binds
B16: 51A12_C1 Fab (Fab, V domains shown)
VH: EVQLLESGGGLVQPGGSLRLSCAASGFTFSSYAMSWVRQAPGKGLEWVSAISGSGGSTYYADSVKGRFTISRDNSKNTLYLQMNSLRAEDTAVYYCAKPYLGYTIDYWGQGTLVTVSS
VL: B6 VL with D91S, R93A, Y94F, A97V, P100N
notes: Fab

Kd [5]: 1.43 nM
koff [5]: 0.000178 s⁻¹
kon [5]: 131000 M⁻¹ s⁻¹
binding result [6]: binds
B17: 51A12 S116A Fab (Fab, V domains shown)
VH: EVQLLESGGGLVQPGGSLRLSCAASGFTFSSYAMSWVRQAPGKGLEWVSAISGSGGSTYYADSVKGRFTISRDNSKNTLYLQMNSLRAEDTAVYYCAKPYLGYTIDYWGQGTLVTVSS
VL: B6 VL with G63A, Y92I, R93C, Y94C, P100N
notes: Fab

binding result [7]: binds
B18: 51A12_C7 human IgG1 antibody (antibody, V domains shown)
VH: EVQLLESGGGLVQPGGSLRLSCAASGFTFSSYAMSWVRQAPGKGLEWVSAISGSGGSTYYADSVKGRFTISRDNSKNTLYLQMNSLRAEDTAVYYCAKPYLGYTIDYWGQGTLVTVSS
VL: B6 VL with Y92I, A97V
notes: also called 51A12_C7 IgG1-converted antibody

Kd [5]: 1.25 nM
koff [5]: 0.00016 s⁻¹
kon [5]: 127000 M⁻¹ s⁻¹
B19: 51A12 A82G S116A Fab (Fab, V domains shown)
VH: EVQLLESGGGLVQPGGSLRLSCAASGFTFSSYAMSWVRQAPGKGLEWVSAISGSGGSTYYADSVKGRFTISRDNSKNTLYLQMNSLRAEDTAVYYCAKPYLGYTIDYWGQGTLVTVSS
VL: SSELTQDPAVSVALGQTVRITCQGDSLRSYYASWYQQKPGQAPVLVIYGKNNRPSGIPDRFSGSSSGNTASLTITGAQAEDEADYYCNSRDICCNRAVRNFGGGTKLTVLG
notes: Light chain variant of 51A12 with the parental heavy chain; To be rechecked

binding result [2]: no binding
Kd [8]: 28.6 nM
koff [8]: 0.00396 s⁻¹
kon [8]: 139000 M⁻¹ s⁻¹
Kd [9]: 28.6 nM
koff [9]: 0.00396 s⁻¹
kon [9]: 139000 M⁻¹ s⁻¹
B21: 52C4 Fab (Fab, V domains shown)
VH: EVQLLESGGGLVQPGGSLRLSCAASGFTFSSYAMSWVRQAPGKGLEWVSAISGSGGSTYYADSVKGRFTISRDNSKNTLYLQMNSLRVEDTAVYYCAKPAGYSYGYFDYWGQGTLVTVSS
VL: SSELTQDPAVSVALGQTVRITCQGDSLRSYYASWYQQKPGQAPVLVIYGKNNRPSGIPDRFSGSSSGNTASLTITGAQAEDEADYYCNSGASSGNQLVFGGGTKLTVL
notes: Human lambda Fab from E. coli

Further lines, the binder ahead of its results:

B1: R9E10 Fab (Fab, V domains shown)
VH: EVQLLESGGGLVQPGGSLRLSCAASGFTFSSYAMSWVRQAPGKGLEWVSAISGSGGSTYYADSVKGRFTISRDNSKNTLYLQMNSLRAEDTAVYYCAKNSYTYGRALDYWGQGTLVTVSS
VL: SSELTQDPAVSVALGQTVRITCQGDSLRSYYASWYQQKPGQAPVLVIYGKNNRPSGIPDRFSGSSSGNTASLTITGAQAEDEADYYCNSRNVRGKLVFGGGTKLTVL
notes: Human lambda Fab from E. coli
Kd [1]: 4.34 nM
koff [1]: 0.00199 s⁻¹
kon [1]: 460000 M⁻¹ s⁻¹
binding result [2]: no binding
Kd [3]: 3.6 nM
koff [3]: 0.00211 s⁻¹
kon [3]: 586000 M⁻¹ s⁻¹

B2: R5C2 IgG (antibody, V domains shown)
VH: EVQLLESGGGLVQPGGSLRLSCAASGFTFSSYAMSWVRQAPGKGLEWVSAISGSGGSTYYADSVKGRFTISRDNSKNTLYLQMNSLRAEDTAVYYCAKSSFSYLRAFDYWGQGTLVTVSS
VL: B1 VL with K50R, N91D, V92R, K95Y, L96S
notes: also called R5C2 human IgG1 antibody
Kd [4]: 5.9 nM

B3: R5C2 Fab (Fab, V domains shown)
VH: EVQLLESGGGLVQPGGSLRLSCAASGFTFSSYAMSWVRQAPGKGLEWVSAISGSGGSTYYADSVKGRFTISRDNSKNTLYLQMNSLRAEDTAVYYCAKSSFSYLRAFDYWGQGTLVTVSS
VL: B1 VL with K50R, N91D, V92R, K95Y, L96S
notes: Human lambda Fab from E. coli
Kd [1]: 3.41 nM
koff [1]: 0.00114 s⁻¹
kon [1]: 334000 M⁻¹ s⁻¹
binding result [2]: no binding
Kd [3]: 2.65 nM
koff [3]: 0.00112 s⁻¹
kon [3]: 423000 M⁻¹ s⁻¹

B4: R9E10 IgG (antibody, V domains shown)
VH: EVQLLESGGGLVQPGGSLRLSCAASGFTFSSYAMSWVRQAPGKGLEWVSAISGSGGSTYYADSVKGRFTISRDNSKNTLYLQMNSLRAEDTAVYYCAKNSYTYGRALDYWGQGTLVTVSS
VL: B1 VL
notes: also called R9E10 human IgG1 antibody
Kd [4]: 6.2 nM

B5: 51A12_E7 Fab (Fab, V domains shown)
VH: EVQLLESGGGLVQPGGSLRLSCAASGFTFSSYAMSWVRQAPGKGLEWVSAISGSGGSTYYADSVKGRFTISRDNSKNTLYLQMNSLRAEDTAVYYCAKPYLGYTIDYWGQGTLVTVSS
VL: B6 VL
notes: Fab
Kd [5]: 0.448 nM
koff [5]: 9.64e-05 s⁻¹
kon [5]: 215000 M⁻¹ s⁻¹
binding result [6]: binds

B7: 51A12 Fab (Fab, V domains shown)
VH: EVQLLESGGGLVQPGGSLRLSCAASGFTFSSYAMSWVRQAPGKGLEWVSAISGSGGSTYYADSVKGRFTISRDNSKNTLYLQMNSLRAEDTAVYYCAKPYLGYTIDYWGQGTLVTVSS
VL: B6 VL with G63A, Y92I, R93C, Y94C, A97S, P100N
notes: Human lambda Fab from E. coli, purified by IMAC; also called clone 51A12; parental clone 51A12
Kd [8]: 0.57 nM
koff [8]: 6.28e-05 s⁻¹
kon [8]: 110000 M⁻¹ s⁻¹
Kd [5]: 0.57 nM
koff [5]: 6.28e-05 s⁻¹
kon [5]: 110000 M⁻¹ s⁻¹
Kd [9]: 0.571 nM
koff [9]: 6.28e-05 s⁻¹
kon [9]: 110000 M⁻¹ s⁻¹

B20: R7E12 IgG (antibody, V domains shown)
VH: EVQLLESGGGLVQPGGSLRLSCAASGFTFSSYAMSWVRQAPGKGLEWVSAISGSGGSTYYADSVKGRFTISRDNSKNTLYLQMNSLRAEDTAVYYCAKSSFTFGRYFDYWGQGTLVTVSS
VL: B21 VL with G90R, A91K, G94S, N95K, Q96N, L97V
notes: To be rechecked
Kd [4]: 22 nM

B22: R7E12 Fab (Fab, V domains shown)
VH: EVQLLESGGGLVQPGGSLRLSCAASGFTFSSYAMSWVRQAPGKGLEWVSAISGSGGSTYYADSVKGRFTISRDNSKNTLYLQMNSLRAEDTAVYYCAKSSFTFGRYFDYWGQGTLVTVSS
VL: B21 VL with G90R, A91K, G94S, N95K, Q96N, L97V
notes: To be rechecked
Kd [1]: 9.55 nM
koff [1]: 0.00236 s⁻¹
kon [1]: 247000 M⁻¹ s⁻¹
binding result [2]: no binding
Kd [3]: 9.12 nM
koff [3]: 0.00268 s⁻¹
kon [3]: 294000 M⁻¹ s⁻¹

B23: 4F3 Fab (Fab, V domains shown)
VH: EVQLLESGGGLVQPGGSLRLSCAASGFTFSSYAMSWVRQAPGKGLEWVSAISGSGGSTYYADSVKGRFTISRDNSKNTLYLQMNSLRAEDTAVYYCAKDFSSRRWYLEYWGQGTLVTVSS
VL: SSELTQDPAVSVALGQTVRITCQGDSLRSYYASWYQQKPGQAPVLVIYGKNNRPSGIPDRFSGSSSGNTASLTITGAQAEDEADYYCNSLERIGYLSYVFGGGTKLTVL
notes: Human lambda Fab from E. coli; also called clone 4F3
Kd [1]: 21.6 nM
koff [1]: 0.00365 s⁻¹
kon [1]: 169000 M⁻¹ s⁻¹
binding result [2]: no binding
Kd [11]: 29.5 nM
koff [11]: 0.00445 s⁻¹
kon [11]: 151000 M⁻¹ s⁻¹
Kd [12]: 33.6 nM
koff [12]: 0.0048 s⁻¹
kon [12]: 143000 M⁻¹ s⁻¹
Kd [3]: 18.2 nM
koff [3]: 0.00408 s⁻¹
kon [3]: 224000 M⁻¹ s⁻¹

B24: 4F3 IgG (antibody, V domains shown)
VH: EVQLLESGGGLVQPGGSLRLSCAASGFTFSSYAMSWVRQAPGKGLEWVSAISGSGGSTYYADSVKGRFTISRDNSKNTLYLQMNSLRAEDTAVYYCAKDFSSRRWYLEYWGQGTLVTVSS
VL: B23 VL
notes: also called 4F3 human IgG1 antibody; clone 4F3
Kd [4]: 4.5 nM
